Results published in patent US5458874A, “Method of increasing monocyte chemotaxis with CAP37 and monocyte chemotactic portions thereof” (Emory University, priority 1992, dated 1995).
“Also recorded” adds a separate entry of the source.

System: monocytes/macrophages
Test: In vivo chemotactic assay, intraperitoneal injection, peritoneal exudate cells
Set-up: species or system BALB/c mice
Details: for % PMN / % monocytes: i.p., mice, peritoneal exudate
Protocol: Female BALB/c mice (6-8 weeks) (Jackson Laboratory, Bar Harbor, […].) were injected intraperitoneally (i.p.) with 100 ng CAP37 (purified according to the method of the invention) per mouse in 2 ml RPMI-1640 serum-free medium (Mediatech). A control group of mice were injected i.p. with 2 ml brewers thioglycollate (4% w/v) (Difco Laboratories), a known stimulator of inflammatory cells whose action is well documented. A second control group of mice were injected j.p. with 2 ml of RPMI-1640 alone.
At 6, 24, 48 and 72 hours following these i.p. injections, four mice in each group were sacrificed by CO2 anesthesia. Ten ml sterile medium was injected into the peritoneal cavity of each mouse and the abdominal area gently massaged to dislodge the exudate cells. The medium containing the exudate cells was then aspirated from the peritoneal cavity using a 19 gauge needle attached to a syringe. The total number of cells in the peritoneal exudate was determined by counting the cells on a COULTER COUNTER (Coulter Electronics, Hialeah, Fla.: The operation of the COULTER COUNTER is based on electrical conductivity difference between particles and common diluent. Particles act as insulators, diluents as good conductors. The particles, suspended in an electrolyte, are forced through a small aperture through which an electrical current path has been established. As each particle displaces electrolyte in the aperture, a pulse essentially proportional to the particle volume is produced. Thus a 3-dimensional particle volume response is the basis for all sizing, regardless of position or orientation of the particle in solution.) One hundred μl of the peritoneal exudate was cytocentrifuged onto a glass slide and the cells stained with Wright's stain. A differential count of the cells was made by counting the number of monocytes, lymphocytes, neutrophils, basophils and eosinoplils per hundred consecutive cells. These experiments were performed to determine the time course of migration of neutrophils, monocytes, lymphocytes and other cells into the peritoneal cavity, in response to an i.p. injection of CAP37.

B1: CAP37: granule-associated cationic protein (mol. wt. 37,000 daltons) from human PMN, 222 amino acid mature protein (protein)
chain: IVGGRKARPRQFPFLASIQNQGRHFCGGALIHARFVMTAASCFQSQNPGVSTVVLGAYDLRRRERQSRQTFSISSMSENGYDPQQNLNDLMLLQLDREANLTSSVTILPLPLQNATVEAGTRCQVAGWGSQRSGGRLSRFPRFVNVTVTPEDQCRPNNVCTGVLTRRGGICNGDGGTPLVCEGLAHGVASFSLGPCGRGPDFFTRVALFRDWIDGVLNNPGP
migration of cells into the peritoneal cavity (in words) (100 ng CAP37 per mouse i.p.): moderately increased the overall numbers of cells; also recorded: potent monocyte chemoattractant capacity
time at which monocytes appeared in the peritoneal cavity (100 ng CAP37 per mouse i.p.): 24 h
% PMN (6 hours post injection): 65%
% monocytes (6 hours post injection): 7%
% PMN (24 hours post injection): dramatic reduction in neutrophils
% monocytes (24 hours post injection): 27%
% PMN (24 hours post injection, listed as CAP 37): 26%
% PMN (48 hours post injection): 4%
% monocytes (48 hours post injection): 48%
% PMN (72 hours post injection): 3%
% monocytes (72 hours post injection): 55%
